The results in this text go back to PMC10250246 (Nucleic Acids Research, 2023).

One assay deals with T1, Spt6 (239-1451) (S. cerevisiae, UniProt P23615 239-1451).
T1 sequence (looked up): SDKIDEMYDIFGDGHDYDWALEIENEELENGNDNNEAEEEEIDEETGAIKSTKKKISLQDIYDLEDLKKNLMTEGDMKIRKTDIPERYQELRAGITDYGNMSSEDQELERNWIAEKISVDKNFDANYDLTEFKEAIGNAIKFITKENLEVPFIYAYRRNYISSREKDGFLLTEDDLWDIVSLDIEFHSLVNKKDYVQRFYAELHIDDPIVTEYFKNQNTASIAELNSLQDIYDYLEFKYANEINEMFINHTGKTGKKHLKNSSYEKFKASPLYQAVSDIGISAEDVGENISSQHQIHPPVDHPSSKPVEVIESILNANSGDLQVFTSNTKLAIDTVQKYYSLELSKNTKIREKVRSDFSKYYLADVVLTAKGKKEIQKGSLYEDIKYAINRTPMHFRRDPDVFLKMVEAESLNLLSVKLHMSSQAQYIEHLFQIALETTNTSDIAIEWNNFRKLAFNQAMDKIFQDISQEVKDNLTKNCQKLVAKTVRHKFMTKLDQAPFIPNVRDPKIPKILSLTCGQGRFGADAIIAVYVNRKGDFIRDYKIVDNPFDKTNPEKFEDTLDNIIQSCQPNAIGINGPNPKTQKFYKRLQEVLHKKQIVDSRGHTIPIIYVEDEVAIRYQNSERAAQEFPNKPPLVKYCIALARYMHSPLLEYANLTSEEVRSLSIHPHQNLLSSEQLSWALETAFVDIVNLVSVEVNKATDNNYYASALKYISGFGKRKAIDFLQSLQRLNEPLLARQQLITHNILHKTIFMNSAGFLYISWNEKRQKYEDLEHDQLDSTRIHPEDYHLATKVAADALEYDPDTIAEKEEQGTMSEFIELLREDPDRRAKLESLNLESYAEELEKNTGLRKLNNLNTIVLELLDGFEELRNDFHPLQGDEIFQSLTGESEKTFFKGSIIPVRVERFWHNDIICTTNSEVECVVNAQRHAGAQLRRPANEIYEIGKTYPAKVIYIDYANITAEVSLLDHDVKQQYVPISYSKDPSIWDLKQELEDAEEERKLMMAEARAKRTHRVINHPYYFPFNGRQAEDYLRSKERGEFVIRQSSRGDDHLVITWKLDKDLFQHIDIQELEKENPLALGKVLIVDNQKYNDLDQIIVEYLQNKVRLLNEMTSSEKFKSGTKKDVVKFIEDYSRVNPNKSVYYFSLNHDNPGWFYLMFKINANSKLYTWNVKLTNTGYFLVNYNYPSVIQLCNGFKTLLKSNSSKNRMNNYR
Put plainly: fluorescence polarisation.

Assay [1] has as its target T2, 10xHis-mRuby2-Spt6 (239-1451) (S. cerevisiae, UniProt P23615 239-1451).
T2 sequence (looked up): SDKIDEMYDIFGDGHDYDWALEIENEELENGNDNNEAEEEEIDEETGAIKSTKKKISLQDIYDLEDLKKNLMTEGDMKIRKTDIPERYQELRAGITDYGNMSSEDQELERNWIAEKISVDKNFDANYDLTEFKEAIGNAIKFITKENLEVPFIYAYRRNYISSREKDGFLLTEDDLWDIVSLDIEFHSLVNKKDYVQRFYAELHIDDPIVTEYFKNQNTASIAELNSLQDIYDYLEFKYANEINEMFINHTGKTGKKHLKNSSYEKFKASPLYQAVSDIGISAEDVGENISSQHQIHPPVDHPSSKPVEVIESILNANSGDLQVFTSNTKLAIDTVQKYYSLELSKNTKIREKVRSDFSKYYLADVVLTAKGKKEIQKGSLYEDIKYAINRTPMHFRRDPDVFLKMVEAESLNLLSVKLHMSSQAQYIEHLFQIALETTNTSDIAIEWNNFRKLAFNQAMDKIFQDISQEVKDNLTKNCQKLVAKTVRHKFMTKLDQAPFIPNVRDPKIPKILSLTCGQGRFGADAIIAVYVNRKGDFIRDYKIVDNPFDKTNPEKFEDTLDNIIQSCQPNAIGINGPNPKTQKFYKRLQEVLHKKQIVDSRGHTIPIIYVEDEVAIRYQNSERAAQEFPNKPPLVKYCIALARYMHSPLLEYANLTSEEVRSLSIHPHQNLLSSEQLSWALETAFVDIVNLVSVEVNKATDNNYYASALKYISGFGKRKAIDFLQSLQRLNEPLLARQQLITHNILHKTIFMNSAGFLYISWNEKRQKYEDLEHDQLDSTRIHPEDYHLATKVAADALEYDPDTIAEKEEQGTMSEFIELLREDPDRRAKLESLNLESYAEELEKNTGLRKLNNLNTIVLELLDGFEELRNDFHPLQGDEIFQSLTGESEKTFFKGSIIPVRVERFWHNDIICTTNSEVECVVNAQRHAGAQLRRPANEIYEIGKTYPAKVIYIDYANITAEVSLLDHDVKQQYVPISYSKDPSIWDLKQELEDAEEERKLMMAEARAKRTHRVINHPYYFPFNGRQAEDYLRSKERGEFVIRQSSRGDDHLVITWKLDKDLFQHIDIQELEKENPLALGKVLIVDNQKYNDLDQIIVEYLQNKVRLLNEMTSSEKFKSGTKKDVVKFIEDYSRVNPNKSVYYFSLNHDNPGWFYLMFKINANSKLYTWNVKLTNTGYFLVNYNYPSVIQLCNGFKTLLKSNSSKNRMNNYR
Put plainly: native gel or EMSA. Background: In EMSA bound probe runs differently from free probe, usually more slowly.

What is called Kd is the concentration at which binding is half-saturated.

B1: 10xHis-mClover-Cdc73 (natural protein, S. cerevisiae, UniProt Q06697 1-393, looked up)
chain: MANSLDRLREHLKNGDKLVLKNNEGQSTDDITKATMVETLSSDGSTQDSFPLNEETEIEIDGSLVQLRIIVHCWMNKDSSAADYLADCQNKQLTNVSFLQRTDLINWLSGNTESSQYLKAPGQKGETSDKVDIENKTLAGELSTVKSTTSASLENDSEVSDPVVVETMKHERILVDHNSALRGAKPINFGYLIKDAELKLVQSIKGSLRGSKLPPGHKGAHGRISKTNGSSGGPRKDPIILIPSAASSILTVANIKQFLLESKYVNPRNLPSVPNGLVNIEKNFERISRPIRFIIVDNTRMFTKPEYWDRVVAIFTTGHTWQFNNYQWNSPQELFQRCKGYYFHFAGDSVPQHVQQWNVEKVELDKNKRFKDVEVVRYFWHSLEKELISRGYR
For the molecule B1, the Kd in the assay with Spt6 (239-1451) was 770 nM; in assay [1] it was approximately 320 nM.

B2: 10xHis-mClover-Cdc73 W321A (natural protein, S. cerevisiae, UniProt Q06697 1-393, looked up)
chain: MANSLDRLREHLKNGDKLVLKNNEGQSTDDITKATMVETLSSDGSTQDSFPLNEETEIEIDGSLVQLRIIVHCWMNKDSSAADYLADCQNKQLTNVSFLQRTDLINWLSGNTESSQYLKAPGQKGETSDKVDIENKTLAGELSTVKSTTSASLENDSEVSDPVVVETMKHERILVDHNSALRGAKPINFGYLIKDAELKLVQSIKGSLRGSKLPPGHKGAHGRISKTNGSSGGPRKDPIILIPSAASSILTVANIKQFLLESKYVNPRNLPSVPNGLVNIEKNFERISRPIRFIIVDNTRMFTKPEYWDRVVAIFTTGHTAQFNNYQWNSPQELFQRCKGYYFHFAGDSVPQHVQQWNVEKVELDKNKRFKDVEVVRYFWHSLEKELISRGYR
For B2, the binding result in assay [1] is “binds”.
